Laboratory results: patent US6335176B1, “Incorporation of phosphorylation sites” (Pharmacopeia, Inc., priority 1998, dated 2002)
Values belong to the molecule of their own block, whether it stands above or below them. Bridge positions count the residues as written; N and C are the ends. Square brackets hold non-standard residues; d marks the D form. Ends that are not written are not given here. I, II: the chains in the order shown. pS = N[C@@H](COP(=O)(O)O)C(=O)O

Tests used:
EpoR-Fc = molecular target: T1, EpoR-Fc (Homo sapiens, UniProt P19235); assay: Saturation binding of Epo-Fc-[33P]phosphopeptide A to EpoR-Fc surface-coated plates
T1 construct: containing the extracellular domain of the erythropoietin receptor fused to the Fc region of human IgG
T1 sequence (P19235 25-250 limits assumed): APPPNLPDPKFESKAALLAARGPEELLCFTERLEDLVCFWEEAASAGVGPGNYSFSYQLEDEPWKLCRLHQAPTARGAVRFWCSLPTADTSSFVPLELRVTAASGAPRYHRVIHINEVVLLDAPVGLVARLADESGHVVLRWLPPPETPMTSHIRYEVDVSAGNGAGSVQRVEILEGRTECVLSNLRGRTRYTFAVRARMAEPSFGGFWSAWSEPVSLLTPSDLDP
Protocol: (§1) Ligand Binding Assays in Elisa Plate Format. Costar EIA 96-well microtiter plates (assay plates) were coated with 40 ul/well of a solution of anchoring antibody (˜1-5 ug/ml) or binding protein (0.1-0.5 ug/ml) in TBS and incubated overnight at 4° C. Plates were then blocked with 80 ul/well of 1% BSA/TBS for 30 min. Following removal of the blocking protein, 40 ul/well of receptor or receptor fusion protein (0.1-0.5 ug/ml) was added to the plate and incubated at ambient temperature for one hr. if an anchoring antibody step was used. The assay plate was then washed with TBS/0.01% BSA and 40 ul/well ligand at indicated concentrations was added. The assay plate was allowed to incubate at ambient temp. for ˜1-3 hr. with shaking and then washed three times with TBS/0.01% Tween 20 using a SkanWasher300 plate washer (Skatron, Sterling, Va.). Radiolabel was detected by the addition of 80 ul/well of Optiphase (Wallac, Turku, Finland) and the assay plate counted on a Wallace MicroBeta scintillation counter.
The cytokine receptor for erythropoietin was studied as a recombinant soluble Fc-fusion protein containing the extracellular domain of the erythropoietin receptor fused to the Fc region of human IgG. The ligand for this receptor, erythropoietin (Epo) was also prepared as an Fc-fusion, specifically as a fusion to the Fc region of mouse IgG. […]

CXC2 receptor = molecular target: T2, CXC2 receptor (Homo sapiens, UniProt P25025); assay: Binding of IL8-[33P]phosphopeptide A to CXC2 receptors on CHO cells
T2 construct: expressed in transfected cells; host or cells: CHO cells
T2 sequence (P25025 1-360): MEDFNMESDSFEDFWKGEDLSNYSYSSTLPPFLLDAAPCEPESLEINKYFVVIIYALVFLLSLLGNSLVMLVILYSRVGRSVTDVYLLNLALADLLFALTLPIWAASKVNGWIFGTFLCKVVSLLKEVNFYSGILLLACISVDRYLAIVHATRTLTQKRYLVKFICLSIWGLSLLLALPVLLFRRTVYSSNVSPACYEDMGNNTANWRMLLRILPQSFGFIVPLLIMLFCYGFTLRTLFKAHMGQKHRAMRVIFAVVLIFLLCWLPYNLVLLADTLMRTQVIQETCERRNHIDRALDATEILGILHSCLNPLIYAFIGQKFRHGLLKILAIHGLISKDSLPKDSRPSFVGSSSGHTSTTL
Protocol: (§2) Ligand Binding Assays using Cells or Membranes. Cultured cells expressing the receptor of interest were suspended to ˜1.6×10^6 per ml in DMEM containing 0.1% FBS. 100 ul aliquots were incubated in a 96-well U-bottom polypropylene microtiter plate (assay plate) containing the indicated ligands. After the appropriate incubation time (˜1-3 hrs) cells were transferred to 1.5 ml eppendorf tubes and centrifuged at 2000 rpm (358×g) for 2 min at 6° C., supernatants aspirated and cells resuspended in 1 ml cell media and centrifuged again. The washed cells were resuspended in 20 ul of cell media and transferred to a microtiter plate, 80 ul/well of Optiphase® (Wallac, Turku, Finland) scintillation cocktail added and plates counted in a Wallac MicroBeta scintillation counter. For cells or membranes harvested by filtration, transfers from the assay plate were made directly to a Millipore 1.2 um GF/C filter plate treated or untreated with 0.3% PEI. Wells were washed with DMEM (3×100 ul) and a final wash with 100 ul water. Scintillation cocktail was added as described above.
(§3) Several ligands for commonly studied receptor families, G protein-coupled receptors (GPCRs) and cytokine receptors were labeled using the reagent of the invention. […]

NK2 receptor = molecular target: T3, NK2 receptor (Rattus norvegicus, UniProt P16610); assay: Binding of NKA-[33P]phosphopeptide A to NK2 receptors on CHO cells (whole cell)
T3 construct: expressed in transfected cells; host or cells: CHO cells
T3 sequence (P16610 1-390): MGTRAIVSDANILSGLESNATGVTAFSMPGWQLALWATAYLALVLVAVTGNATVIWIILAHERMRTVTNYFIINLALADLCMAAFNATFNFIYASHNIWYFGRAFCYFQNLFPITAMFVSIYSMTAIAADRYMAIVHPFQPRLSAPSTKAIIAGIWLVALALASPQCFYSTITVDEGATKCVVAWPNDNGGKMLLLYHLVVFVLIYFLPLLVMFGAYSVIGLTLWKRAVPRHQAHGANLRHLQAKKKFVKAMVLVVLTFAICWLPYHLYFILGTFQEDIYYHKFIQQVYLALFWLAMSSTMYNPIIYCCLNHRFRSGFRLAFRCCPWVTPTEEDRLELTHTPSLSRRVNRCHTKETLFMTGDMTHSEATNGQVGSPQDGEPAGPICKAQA
Protocol: as §2, §3

ObR-Fc = molecular target: T4, ObR-Fc (Homo sapiens, UniProt P48357); assay: Saturation binding of leptin-[33P]phosphopeptide A to ObR-Fc surface-coated plates; conditions: at the highest concentration of labeled ligand
T4 construct: containing the extracellular domain of the ObR fused to the Fc region of human IgG; purchased R&D Systems, Minneapolis, Minn
T4 sequence (P48357 22-839 limits assumed): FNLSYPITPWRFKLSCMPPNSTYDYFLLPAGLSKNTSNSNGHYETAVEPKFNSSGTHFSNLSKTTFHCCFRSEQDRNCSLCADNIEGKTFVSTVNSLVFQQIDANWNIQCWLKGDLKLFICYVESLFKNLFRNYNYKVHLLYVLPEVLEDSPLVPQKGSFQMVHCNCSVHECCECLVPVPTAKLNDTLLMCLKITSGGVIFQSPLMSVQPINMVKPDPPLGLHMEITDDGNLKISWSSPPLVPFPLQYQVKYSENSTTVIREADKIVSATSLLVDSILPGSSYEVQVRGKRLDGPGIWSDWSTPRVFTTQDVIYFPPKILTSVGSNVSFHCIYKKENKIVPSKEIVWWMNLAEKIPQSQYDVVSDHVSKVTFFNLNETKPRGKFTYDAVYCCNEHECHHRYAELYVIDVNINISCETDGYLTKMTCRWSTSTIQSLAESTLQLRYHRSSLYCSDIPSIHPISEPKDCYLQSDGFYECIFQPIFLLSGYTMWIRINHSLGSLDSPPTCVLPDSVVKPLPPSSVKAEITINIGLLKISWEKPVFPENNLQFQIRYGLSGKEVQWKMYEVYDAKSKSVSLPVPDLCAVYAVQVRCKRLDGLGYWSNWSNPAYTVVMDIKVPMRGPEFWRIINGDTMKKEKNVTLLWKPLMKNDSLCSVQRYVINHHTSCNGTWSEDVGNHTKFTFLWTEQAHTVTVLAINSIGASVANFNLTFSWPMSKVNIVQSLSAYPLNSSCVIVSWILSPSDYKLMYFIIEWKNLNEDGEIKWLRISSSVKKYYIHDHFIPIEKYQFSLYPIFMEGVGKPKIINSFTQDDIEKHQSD
Protocol: as §1
The cytokine receptor for leptin, the Ob receptor (ObR), was studied as a soluble Fc-fusion protein containing the extracellular domain of the ObR fused to the Fc region of human IgG (R&D Systems, Minneapolis, Minn.). The ligand for this receptor, leptin (R&D Systems) was phosphorylated according to the method of invention as described above.

[1] = molecular target: NK2 receptor recombinantly expressed in CHO cells; assay: saturation radioligand binding, CHO cells, 160,000 cells/assay (FIG. 9A)
Chain of NK2 receptor recombinantly expressed in CHO cells (P21452 whole entry): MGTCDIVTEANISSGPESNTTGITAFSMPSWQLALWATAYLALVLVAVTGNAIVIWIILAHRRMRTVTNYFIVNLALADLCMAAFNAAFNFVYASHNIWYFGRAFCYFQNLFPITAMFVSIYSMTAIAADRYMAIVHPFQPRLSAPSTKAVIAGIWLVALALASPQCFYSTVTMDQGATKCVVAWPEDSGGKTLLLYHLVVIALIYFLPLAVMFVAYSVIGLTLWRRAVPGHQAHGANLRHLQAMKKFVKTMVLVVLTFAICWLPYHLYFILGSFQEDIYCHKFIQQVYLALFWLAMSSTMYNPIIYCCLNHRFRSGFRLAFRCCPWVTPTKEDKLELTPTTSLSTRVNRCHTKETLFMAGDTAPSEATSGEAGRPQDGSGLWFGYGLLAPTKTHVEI

[2] = saturation binding, 160,000 cells/assay

specific binding to its receptor (NK2 receptor; 33P-labeled ligand, FIG. 8): bound specifically
Bmax (NK2 receptor; [2]): 700,000 receptors/cell
Molecule: N-α-acetyl-S-[NKA-lys2N^e-amido-(6-aminothioacetyl)hexonyl]cys-ser-arg-arg-ala-[^33PO3]phosphoser-val-tyr-amide (peptide 1 HKTRSFVGLM-NH2; peptide 2 Ac-CSRRASVY-NH2; bridge I:2-II:1; not fully specified (some residues, bridges); printed as N-α-acetyl-S-[NKA-lys2N^e-amido-(6-aminothioacetyl)hexonyl]cys-ser-arg-arg-ala-[^33PO3]phosphoser-val-tyr-amide; also: phosphoserine carries [33P]phosphate label) [NKA-[^33P]phosphopeptide A]

saturation binding (ObR-Fc): Binding was detected
Molecule: N-α-acetyl-S-[leptin-amido-)6-aminothioacetyl)hexonyl]cys-ser-arg-arg-ala-[^33PO3]phosphoser-val-tyr-amide1-2 [leptin [^33P]phosphopeptide A]

Bmax (receptors/cell) [1]: 700000
B1: Neurokinin A-[^33PO3]peptide A conjugate (NKA-lys2N^e-[^33PO3]peptide A) (peptide)
peptide 1: HKTRSFVGLM-NH2
peptide 2: Ac-CSRRA[pS]VY-NH2
modifications: bridge I:2-II:1; not fully specified (some residues, bridges); printed as N-&agr,-acetyl-S-[NKA-lys2Ne-amido-(6-aminothioacetyl)hexonyl]cys-ser-arg-arg-ala-[33PO3]phosphoser-val-tyr-amide; also: 33P-labelled phosphate on phosphoserine of chain 2

More lines, now with the values behind:

Molecule: N-α-acetyl-S-[Epo-Fc-8-amido-(6-aminothioacetyl)hexonyl]cys-ser-arg-arg-ala-[^33PO3]phosphoser-val-tyr-amide [Epo-Fc-[^33P]phosphopeptide A]
amount detected at the highest concentration of labeled ligand (EpoR-Fc): ~20 Fmol/well

Molecule: N-α-acetyl-S-[IL8-amido-(6-aminothioacetyl)hexonyl]cys-ser-arg-arg-ala-[^33PO3]phosphoser-val-tyr-amide1-4 [IL8-[^33P]phosphopeptide A]
specific binding to its receptor (CXC2 receptor; 33P-labeled ligand, FIG. 8): bound specifically
Bmax (CXC2 receptor; [2]): 110,000 receptors/cell
